Consider two molecules from patent US12427210B2, “Compounds comprising a fibroblast activation protein ligand and use thereof” (priority 2019, dated 2025).

Conditions in all cases: remark: other sources report otherwise
Assay [1] addresses human fibroblast activation protein (FAP) on human WI-38 fibroblasts (human). In words: competitive FACS binding on FAP-expressing WI-38 cells against 3 nM Cy5-labeled compound; category A = pIC50 values >8.0. (In general: A flow cytometer gives signals particle by particle.)
Assay [2] addresses mu (MOP) (h) (human), P35372. Nature of the assay: radioligand displacement, compound at 10 µM.
A further assay deals with M3 (h) (human), P20309. Nature of the assay: radioligand displacement, compound at 10 µM. (Displacement assays read how much labelled ligand stays bound in the presence of the test substance.)
The target of the next assay is T1, ETA (h) (human), P25101.
T1 chain: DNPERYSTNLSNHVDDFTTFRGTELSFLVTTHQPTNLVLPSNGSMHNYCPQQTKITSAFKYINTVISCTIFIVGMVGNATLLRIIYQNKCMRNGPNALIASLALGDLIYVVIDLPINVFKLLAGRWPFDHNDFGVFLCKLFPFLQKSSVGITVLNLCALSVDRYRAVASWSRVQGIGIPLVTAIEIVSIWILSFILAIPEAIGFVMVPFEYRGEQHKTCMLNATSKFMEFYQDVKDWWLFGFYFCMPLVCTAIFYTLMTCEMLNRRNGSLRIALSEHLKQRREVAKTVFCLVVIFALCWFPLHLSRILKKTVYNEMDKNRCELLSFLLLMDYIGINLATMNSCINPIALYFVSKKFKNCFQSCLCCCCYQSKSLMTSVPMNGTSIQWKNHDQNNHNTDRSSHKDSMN
Nature of the assay: radioligand displacement, compound at 10 µM.

The target of assay [3] is T2, CCK1 (CCKA) (h) (human), P32238.
T2 chain: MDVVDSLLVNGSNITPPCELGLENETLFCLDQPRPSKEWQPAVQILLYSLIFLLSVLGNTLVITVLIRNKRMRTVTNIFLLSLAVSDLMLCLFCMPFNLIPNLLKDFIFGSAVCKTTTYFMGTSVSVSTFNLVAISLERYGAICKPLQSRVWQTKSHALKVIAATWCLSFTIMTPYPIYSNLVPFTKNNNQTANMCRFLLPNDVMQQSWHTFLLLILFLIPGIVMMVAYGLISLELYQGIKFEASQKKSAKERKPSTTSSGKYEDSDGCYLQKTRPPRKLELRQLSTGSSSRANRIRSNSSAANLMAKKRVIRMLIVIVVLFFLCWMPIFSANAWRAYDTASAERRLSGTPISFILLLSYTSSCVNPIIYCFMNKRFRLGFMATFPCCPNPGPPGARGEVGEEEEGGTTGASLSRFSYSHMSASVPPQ
In words: radioligand displacement, compound at 10 µM.

In assay [4] the target is 5-HT2A (h) (human), P28223. Nature of the assay: radioligand displacement, compound at 10 µM.
Sequence of 5-HT2A (h) (human), P28223 (P28223 whole entry): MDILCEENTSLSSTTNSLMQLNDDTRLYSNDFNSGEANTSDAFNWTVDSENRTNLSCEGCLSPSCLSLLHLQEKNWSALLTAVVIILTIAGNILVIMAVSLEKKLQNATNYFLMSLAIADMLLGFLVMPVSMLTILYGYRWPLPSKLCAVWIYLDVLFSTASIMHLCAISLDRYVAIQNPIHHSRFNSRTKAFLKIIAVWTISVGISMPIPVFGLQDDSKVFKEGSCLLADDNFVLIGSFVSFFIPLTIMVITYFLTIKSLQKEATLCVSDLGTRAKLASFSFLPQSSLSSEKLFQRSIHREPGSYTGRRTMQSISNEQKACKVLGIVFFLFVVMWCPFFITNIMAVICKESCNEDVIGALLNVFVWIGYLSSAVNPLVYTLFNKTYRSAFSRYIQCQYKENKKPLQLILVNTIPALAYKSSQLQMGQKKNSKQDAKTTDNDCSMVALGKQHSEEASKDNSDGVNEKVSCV
In another assay the target is T3, GR (h) (human), P04150.
T3 chain: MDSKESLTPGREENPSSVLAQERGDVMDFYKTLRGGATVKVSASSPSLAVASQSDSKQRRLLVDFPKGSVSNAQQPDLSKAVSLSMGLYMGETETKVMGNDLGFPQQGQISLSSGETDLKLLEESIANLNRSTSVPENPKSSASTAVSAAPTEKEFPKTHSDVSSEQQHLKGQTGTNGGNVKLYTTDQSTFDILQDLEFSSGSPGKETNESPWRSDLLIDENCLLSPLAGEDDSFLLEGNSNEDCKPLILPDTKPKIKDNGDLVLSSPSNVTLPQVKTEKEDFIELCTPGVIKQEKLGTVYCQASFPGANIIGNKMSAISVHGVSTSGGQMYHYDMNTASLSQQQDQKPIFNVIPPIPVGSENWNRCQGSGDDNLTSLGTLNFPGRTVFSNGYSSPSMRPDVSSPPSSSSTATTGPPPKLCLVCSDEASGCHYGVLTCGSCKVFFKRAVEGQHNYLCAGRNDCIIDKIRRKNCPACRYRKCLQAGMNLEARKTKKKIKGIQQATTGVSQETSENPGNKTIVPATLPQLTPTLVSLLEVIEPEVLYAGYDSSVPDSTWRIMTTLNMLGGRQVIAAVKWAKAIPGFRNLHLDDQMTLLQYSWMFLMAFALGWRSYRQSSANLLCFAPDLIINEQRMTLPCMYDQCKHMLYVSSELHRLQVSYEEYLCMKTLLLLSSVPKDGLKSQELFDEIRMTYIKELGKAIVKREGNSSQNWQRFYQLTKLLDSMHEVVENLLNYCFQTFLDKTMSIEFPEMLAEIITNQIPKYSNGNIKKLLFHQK
In words: radioligand displacement, compound at 10 µM.

The next assay concerns the target T4, D2S (h) (human), P14416.
T4 chain: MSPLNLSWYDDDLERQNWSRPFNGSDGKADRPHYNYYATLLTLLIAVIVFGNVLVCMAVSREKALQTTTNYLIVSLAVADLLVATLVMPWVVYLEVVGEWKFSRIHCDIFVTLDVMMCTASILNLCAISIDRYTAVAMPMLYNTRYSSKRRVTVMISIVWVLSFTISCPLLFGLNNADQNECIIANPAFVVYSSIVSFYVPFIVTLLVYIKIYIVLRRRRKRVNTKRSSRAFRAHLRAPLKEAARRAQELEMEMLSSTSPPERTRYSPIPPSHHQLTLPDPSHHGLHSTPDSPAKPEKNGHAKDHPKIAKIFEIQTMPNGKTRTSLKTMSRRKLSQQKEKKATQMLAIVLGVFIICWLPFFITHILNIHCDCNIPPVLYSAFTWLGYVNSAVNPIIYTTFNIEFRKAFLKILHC
Nature of the assay: radioligand displacement, compound at 10 µM.

Sequence of mu (MOP) (h) (human), P35372 (P35372 whole entry): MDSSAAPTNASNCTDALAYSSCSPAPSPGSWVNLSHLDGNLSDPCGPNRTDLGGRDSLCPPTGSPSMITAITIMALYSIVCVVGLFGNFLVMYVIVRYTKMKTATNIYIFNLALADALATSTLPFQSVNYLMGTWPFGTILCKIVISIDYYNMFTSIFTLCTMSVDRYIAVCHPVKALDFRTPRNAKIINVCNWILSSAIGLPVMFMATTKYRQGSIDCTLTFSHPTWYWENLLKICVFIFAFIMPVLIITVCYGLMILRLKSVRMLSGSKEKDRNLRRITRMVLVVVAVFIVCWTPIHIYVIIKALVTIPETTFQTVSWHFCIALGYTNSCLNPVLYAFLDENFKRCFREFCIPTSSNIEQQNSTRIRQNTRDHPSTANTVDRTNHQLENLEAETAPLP

B1: Hex-[Cys(tMeBn(DOTA-AET))-Pro-Pro-Thr-Gln-Phe-Cys]-OH (3BP-3554) (peptide)
peptide: CPPTQFC
modifications: here or on the partner: N-terminal hexanoyl (Hex); Cys1 and Cys7 cyclised through tMeBn carrying DOTA-AET; free C-terminal acid (-OH)
In assay [1], B1 came in with a pIC50 Category (FACS) of over 8 pIC50. Also, the % Inhibition of Specific Binding in assay [2] is -10%; with M3 (h) (human), P20309 it was 1%; in the assay with ETA (h) (human), P25101, 6%; in assay [3], 16%; in assay [4], 4%; in the assay with GR (h) (human), P04150, 0%. In addition, the % Inhibition of Specific Binding in the assay with D2S (h) (human), P14416 was -7%.

B2: Hex-[Cys(tMeBn(DOTA-PP))-Pro-Pro-Thr-Gln-Phe-Cys]-Asp-NH2 (3BP-3407) (peptide)
peptide: CPPTQFCD
modifications: here or on the partner: N-terminal hexanoyl (Hex); Cys1 and Cys7 cyclised through tMeBn carrying DOTA-PP; C-terminal amide
With B2, the % Inhibition of Specific Binding is 2% in assay [2]; 10% with M3 (h) (human), P20309; -18% with ETA (h) (human), P25101; 24% in assay [3]; -2% in assay [4]; -2% with GR (h) (human), P04150. In addition, the % Inhibition of Specific Binding in the assay with D2S (h) (human), P14416 came to 15%.
